# From article PMC3949604 (Biochemical pharmacology, 2014)
# B1: thioredoxin fusion of CΔ553 (human AhR aa 1-295) (domain or fragment, UniProt P35869 1-295, looked up)
# chain: MNSSSANITYASRKRRKPVQKTVKPIPAEGIKSNPSKRHRDRLNTELDRLASLLPFPQDVINKLDKLSVLRLSVSYLRAKSFFDVALKSSPTERNGGQDNCRAANFREGLNLQEGEFLLQALNGFVLVVTTDALVFYASSTIQDYLGFQQSDVIHQSVYELIHTEDRAEFQRQLHWALNPSQCTESGQGIEEATGLPQTVVCYNPDQIPPENSPLMERCFICRLRCLLDNSSGFLAMNFQGKLKYLHGQKKKGKDGSILPPQLALFAIATPLQPPSILEIRTKNFIFRTKHKLDF
# B2: thioredoxin fusion of D1 (human AhR aa 84-295) (domain or fragment, UniProt P35869 84-295, looked up)
# chain: DVALKSSPTERNGGQDNCRAANFREGLNLQEGEFLLQALNGFVLVVTTDALVFYASSTIQDYLGFQQSDVIHQSVYELIHTEDRAEFQRQLHWALNPSQCTESGQGIEEATGLPQTVVCYNPDQIPPENSPLMERCFICRLRCLLDNSSGFLAMNFQGKLKYLHGQKKKGKDGSILPPQLALFAIATPLQPPSILEIRTKNFIFRTKHKLDF
# B3: thioredoxin fusion of D2 (human AhR aa 84-192) (domain or fragment)
# chain: not shown
# B4: thioredoxin fusion of D3 (human AhR aa 191-295) (domain or fragment, UniProt P35869 191-295, looked up)
# chain: EEATGLPQTVVCYNPDQIPPENSPLMERCFICRLRCLLDNSSGFLAMNFQGKLKYLHGQKKKGKDGSILPPQLALFAIATPLQPPSILEIRTKNFIFRTKHKLDF
# Target: baculovirus expressed human Arnt (aryl hydrocarbon receptor nuclear translocator) (human, UniProt P27540 1-789)
# Sequence (P27540 whole entry): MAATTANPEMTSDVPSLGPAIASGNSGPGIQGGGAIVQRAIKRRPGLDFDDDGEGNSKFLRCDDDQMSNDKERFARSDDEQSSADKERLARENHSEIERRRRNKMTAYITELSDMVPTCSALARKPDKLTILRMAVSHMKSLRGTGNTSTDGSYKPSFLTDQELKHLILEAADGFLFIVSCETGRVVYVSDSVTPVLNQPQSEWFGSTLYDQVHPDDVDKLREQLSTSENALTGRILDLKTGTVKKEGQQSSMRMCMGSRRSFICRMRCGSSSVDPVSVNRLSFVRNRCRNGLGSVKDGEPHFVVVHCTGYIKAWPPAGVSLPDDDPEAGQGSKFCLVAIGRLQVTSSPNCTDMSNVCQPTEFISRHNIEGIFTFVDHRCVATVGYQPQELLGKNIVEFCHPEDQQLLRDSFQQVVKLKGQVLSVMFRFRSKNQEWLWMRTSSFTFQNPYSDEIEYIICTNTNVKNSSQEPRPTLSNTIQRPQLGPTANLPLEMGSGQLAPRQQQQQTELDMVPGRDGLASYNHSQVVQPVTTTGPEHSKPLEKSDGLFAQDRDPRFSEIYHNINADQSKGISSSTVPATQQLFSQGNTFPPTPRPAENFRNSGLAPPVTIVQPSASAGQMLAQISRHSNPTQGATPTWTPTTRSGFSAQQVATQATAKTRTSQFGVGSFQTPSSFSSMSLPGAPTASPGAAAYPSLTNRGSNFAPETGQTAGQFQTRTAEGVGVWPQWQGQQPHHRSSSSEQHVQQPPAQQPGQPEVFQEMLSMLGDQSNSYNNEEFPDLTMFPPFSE
# Assay: co-IP
row,Binder,percent of input co-immunoprecipitated [% input]
1,B1,> 10
2,B2,~10
3,B3,~10
4,B4,~10
